Test results taken from patent US20150018528A1 (Novo Nordisk, published 2015).

T1: Type II PGLYRP2 on HEK293-6E cells (human, UniProt Q96PD5 22-576)
T1 construct: also called hPGLYRP2; PGRP-L
T1 sequence: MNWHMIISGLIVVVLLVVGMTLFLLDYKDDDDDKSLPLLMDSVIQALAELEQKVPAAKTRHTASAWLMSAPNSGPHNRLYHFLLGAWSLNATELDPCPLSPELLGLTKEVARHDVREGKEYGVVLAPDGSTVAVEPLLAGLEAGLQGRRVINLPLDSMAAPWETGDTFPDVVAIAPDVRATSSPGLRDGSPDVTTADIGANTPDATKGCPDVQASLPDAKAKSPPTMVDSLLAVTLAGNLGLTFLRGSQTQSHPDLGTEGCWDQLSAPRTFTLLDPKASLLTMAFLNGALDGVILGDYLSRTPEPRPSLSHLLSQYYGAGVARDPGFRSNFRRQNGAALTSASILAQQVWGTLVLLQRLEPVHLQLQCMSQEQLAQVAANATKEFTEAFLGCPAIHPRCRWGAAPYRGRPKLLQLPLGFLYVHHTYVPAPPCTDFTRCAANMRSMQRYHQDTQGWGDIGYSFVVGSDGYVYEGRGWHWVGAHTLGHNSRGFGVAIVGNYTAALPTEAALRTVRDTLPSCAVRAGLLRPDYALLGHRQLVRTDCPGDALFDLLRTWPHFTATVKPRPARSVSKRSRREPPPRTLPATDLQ

T2: Type II PGLYRP4 on HEK293-6E cells (human, UniProt Q96LB8 18-373)
T2 construct: also called hPGLYRP4; PGRP-1b
T2 sequence: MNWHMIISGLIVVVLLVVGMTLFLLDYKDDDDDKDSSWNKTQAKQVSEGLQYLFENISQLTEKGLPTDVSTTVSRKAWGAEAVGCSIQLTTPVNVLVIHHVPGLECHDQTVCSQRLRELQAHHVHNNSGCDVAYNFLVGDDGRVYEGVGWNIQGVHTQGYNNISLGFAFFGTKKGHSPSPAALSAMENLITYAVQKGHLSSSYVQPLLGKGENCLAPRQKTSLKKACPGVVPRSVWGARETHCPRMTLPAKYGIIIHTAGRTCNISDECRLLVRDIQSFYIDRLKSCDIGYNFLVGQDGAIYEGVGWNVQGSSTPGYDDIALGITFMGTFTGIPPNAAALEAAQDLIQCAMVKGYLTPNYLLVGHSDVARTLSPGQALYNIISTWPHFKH

T3: recombinant human PGLYRP1 generated in-house (SEQ ID NO: 1) (human, UniProt O75594 22-196)
T3 sequence: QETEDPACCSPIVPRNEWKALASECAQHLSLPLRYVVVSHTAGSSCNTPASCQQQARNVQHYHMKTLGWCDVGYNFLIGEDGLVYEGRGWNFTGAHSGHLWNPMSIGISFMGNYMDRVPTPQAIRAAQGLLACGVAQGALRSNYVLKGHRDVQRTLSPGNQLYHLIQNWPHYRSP

T4: Type II muPGLYRP1 on HEK293-6E cells (mouse, UniProt O88593 19-182)
T4 construct: whole, on cells; also called mouse PGLYRP1; not shown: Type II membrane anchor; construct is not described in the text
T4 sequence (looked up): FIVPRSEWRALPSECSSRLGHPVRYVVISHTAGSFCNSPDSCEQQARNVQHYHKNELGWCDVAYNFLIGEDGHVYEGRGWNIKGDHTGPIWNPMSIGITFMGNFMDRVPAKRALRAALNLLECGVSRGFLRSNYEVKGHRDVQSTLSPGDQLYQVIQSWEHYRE

T5: endogenous human PGLYRP1 (neutrophils; RA synovial fluid) (human, UniProt O75594 22-196)
T5 construct: also called PGRP-S; neutrophil-derived PGLYRP1
T5 sequence (looked up): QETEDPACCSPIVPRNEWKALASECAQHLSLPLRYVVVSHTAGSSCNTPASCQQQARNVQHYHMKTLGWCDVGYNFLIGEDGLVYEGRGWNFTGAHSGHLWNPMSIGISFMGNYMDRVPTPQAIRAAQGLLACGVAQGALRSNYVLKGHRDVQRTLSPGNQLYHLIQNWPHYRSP


How the values were obtained:
[1] = molecular target: T1, Type II PGLYRP2 on HEK293-6E cells; assay: flow cytometry on transfected HEK293-6E cells
Method: (§1) 51.2090KZ, BD Biosciences, San Jose Calif., USA) for intracellular staining or 2% FBS/PBS for surface staining: cell pellets were resuspended in a 96-well round bottom plate (to begin with: 160,000 cells/well) with 200 μl cytofix/perm buffer for 15 minutes at 22 C., washed twice with 200 μl 1× PermWash Buffer (diluted 10× in DiH20), stained with 50 μl probe diluted to 5 µg/ml in 1× PermWash buffer, incubated for 1 hour at 4 C., cells were then washed with 200 μl 1× PermWash Buffer, a secondary probe was added in 50 μl 1× PermWash buffer, cells were incubated at 4 C. for 30 minutes, washed twice with 200 μl 1× PermWash Buffer, pellets were resuspended in 50 μl 1:1 PBS diluted CytoFix (BD:554655, San Jose, Calif.), incubated for 5 minutes at 22 C., 150 μl PBS/2% FBS was added, centrifuged for 5 minutes at 300 g, washed 1× with 200 μl PBS/2% FBS and resuspended in 100 μl PBS/2% FBS. Binding was analysed using FACS on LSRII (BD, San Jose Calif., USA).

[2] = molecular target: T2, Type II PGLYRP4 on HEK293-6E cells; assay: flow cytometry on transfected HEK293-6E cells
Method: as §1

[3] = molecular target: T3, recombinant human PGLYRP1 generated …; assay: direct ELISA on PGLYRP1 protein (primary screening of hybridoma supernatants)
[4] = molecular target: T4, Type II muPGLYRP1 on HEK293-6E cells; assay: flow cytometry on transfected HEK293-6E cells
Method: as §1

[5] = molecular target: T5, endogenous human PGLYRP1 (neutrophils; …); assay: crosslinking, immunoprecipitation and LC/MS/MS from human neutrophils; CD83-Fc as control bait

Binder | ratio of MFI of probe staining over negative control staining [1] [ratio] | ratio of MFI of probe staining over negative control staining [2] [ratio] | binding result [3] | also measured
huTREM2.Fc dimer (C0248) (Fc fusion, Entry may hold the hCD33 leader; code tied by the name of the construct only; also called huTrem2.Fc (C0248); hTREM2-Fc6mut dimer) HNTTVFQGVAGQSLQVSCPYDSMKHWGRRKAWCRQLGEKGPCQRVVSTHNLWLLSFLRRWNGSTAITDDTLGGTLTITLRNLQPHDAGLYQCQSLHGSEADTLRKVLVEVLADPLDHRDAGDLWFPGESESFEDAHVEHSISRSLLEGEIPFPPTSGTEPKSSDKTHTCPPCPAPEAEGAPSVFLFPPKPKDTLMISRTPEVTCVVVDVSHEDPEVKFNWYVDGVEVHNAKTKPREEQYNSTYRVVSVLTVLHQDWLNGKEYKCKVSNKALPSSIEKTISKAKGQPREPQVYTLPPSREEMTKNQVSLTCLVKGFYPSDIAVEWESNGQPENNYKTTPPVLDSDGSFFLYSKLTVDKSRWQQGNVFSCSVMHEALHNHYTQKSLSLSPGK | < 1 | < 1 | – | –
M-hPGRPS-2F7 (antibody, V domains shown, Tested as hybridoma supernatant) VH: EVQLQQSGPEVVKPGTSVKMSCKASGYTFTNYVMHWVRQKPGQGLEWVGWINPFNDGTNYNENFKNKATLTSDKSSSTAYMELSSLTSEDSAVYYCARSGFITTLIEDYWGQGTTLTVSS VL: NIVMTQSPKYMSMSVGERVTLTCKASESVGSFVSWYQQKADQSPNLLIYGASNRYTGVPDRFTGSGSARDFTLTISSVQAKDLAEYYCGQYYTHPTFGAGTKLELKR | – | – | binds | –
hCD83-G4Sx3-hCD83/Fc6mut (CD83-Fc, hCD83 tetramer) (Fc fusion, also called control construct (CD83); control protein) TPEVKVACSEDVDLPCTAPWDPQVPYTVSWVKLLEGGEERMETPQEDHLRGQHYHQKGQNGSFDAPNERPYSLKIRNTTSCNSGTYRCTLQDPDGQRNLSGKVILRVTGCPAQRKEETFKKYRAEGTGGGGSGGGGSGGGGSTPEVKVACSEDVDLPCTAPWDPQVPYTVSWVKLLEGGEERMETPQEDHLRGQHYHQKGQNGSFDAPNERPYSLKIRNTTSCNSGTYRCTLQDPDGQRNLSGKVILRVTGCPAQRKEETFKKYRAEGALAGTEPKSSDKTHTCPPCPAPEAEGAPSVFLFPPKPKDTLMISRTPEVTCVVVDVSHEDPEVKFNWYVDGVEVHNAKTKPREEQYNSTYRVVSVLTVLHQDWLNGKEYKCKVSNKALPSSIEKTISKAKGQPREPQVYTLPPSREEMTKNQVSLTCLVKGFYPSDIAVEWESNGQPENNYKTTPPVLDSDGSFFLYSKLTVDKSRWQQGNVFSCSVMHEALHNHYTQKSLSLSPGK | – | – | – | binding result [5]: no binding (tested: 100 µg/ml)
M-hPGRPS-2F5 (antibody, V domains shown, Tested as hybridoma supernatant) VH: EVQLVESGGGLVKPGGSLKLSCAASGFSFSDYYMYWVRQTPEKRLEWVAAISDDSTYTYYPDSVKGRFTISRDNAKNNLYLQMSSLKSEDTAMYYCARGGYGNLYAMDYWGQGTSVTVSS VL: QIVLTQSPAIMSASLGERVTMTCTASSSVSSSYLHWYQQKPGSSPKLWIYSTSNLASGVPARFSGSGSGTSYSLTISSMEAEDAATYYCHQYHRSPFTFGSGTKLEIKR | – | – | binds | –

Further lines, with some results ahead:

ratio of MFI of probe staining over negative control staining [1] [ratio] | ratio of MFI of probe staining over negative control staining [2] [ratio] | binding result [3] | Binder | also measured
< 1 | < 1 | – | huTREML1.Fc dimer (C0246) (Fc fusion, Entry may hold the hCD33 leader; code tied by the name of the construct only; also called huTremL1.Fc (C0246); hTREML1-Fc6mut dimer) QGIVGSLPEVLQAPVGSSILVQCHYRLQDVKAQKVWCRFLPEGCQPLVSSAVDRRAPAGRRTFLTDLGGGLLQVEMVTLQEEDAGEYGCMVDGARGPQILHRVSLNILPPEEEEETHKIGSLAENAFSDPAGSANPLEPSQDEKSIPGTEPKSSDKTHTCPPCPAPEAEGAPSVFLFPPKPKDTLMISRTPEVTCVVVDVSHEDPEVKFNWYVDGVEVHNAKTKPREEQYNSTYRVVSVLTVLHQDWLNGKEYKCKVSNKALPSSIEKTISKAKGQPREPQVYTLPPSREEMTKNQVSLTCLVKGFYPSDIAVEWESNGQPENNYKTTPPVLDSDGSFFLYSKLTVDKSRWQQGNVFSCSVMHEALHNHYTQKSLSLSPGK | ratio of MFI of probe staining over negative control staining [4]: < 1 ratio
< 1 | < 1 | – | huTREML2.Fc dimer (C0247) (Fc fusion, Entry may hold the hCD33 leader; code tied by the name of the construct only; also called huTremL2.Fc (C0247); hTREML2-Fc6mut dimer) GPSADSVYTKVRLLEGETLSVQCSYKGYKNRVEGKVWCKIRKKKCEPGFARVWVKGPRYLLQDDAQAKVVNITMVALKLQDSGRYWCMRNTSGILYPLMGFQLDVSPAPQTERNIPFTHLDNILKSGTVTTGQAPTSGPDAPFTTGVMVFTPGLITLPRLLASTRPASKTGYSFTATSTTSQGPRRTMGSQTVTASPSNARDSSAGPESISTKSGDLSTRSPTTGLCLTSRSLLNRLPSMPSIRHQDVYSGTEPKSSDKTHTCPPCPAPEAEGAPSVFLFPPKPKDTLMISRTPEVTCVVVDVSHEDPEVKFNWYVDGVEVHNAKTKPREEQYNSTYRVVSVLTVLHQDWLNGKEYKCKVSNKALPSSIEKTISKAKGQPREPQVYTLPPSREEMTKNQVSLTCLVKGFYPSDIAVEWESNGQPENNYKTTPPVLDSDGSFFLYSKLTVDKSRWQQGNVFSCSVMHEALHNHYTQKSLSLSPGK | –
